Data taken from PMC7039436.

Target: mono-ubiquitinated human FANCD2 (ubiquitin on Lysine 561) (human) (UniProt Q9BXW9)
Assay: biotin affinity purification with 3C protease elution; in vitro ubiquitination reaction with Avi-ubiquitin loaded on avidin agarose, 2 hrs 4 °C, washed with 10 CV 50 mM Tris-HCl pH 7.4, 150 mM NaCl, 10% glycerol, 1 mM DTT; eluted overnight with 100 nM GST-HRV-3C; Coomassie gel

Substance: mono-ubiquitinated human FANCI (ubiquitin on Lysine 523) (from UniProt Q9NVI1 1-1328; P0CG47 1-76) (natural protein)
- stoichiometry N: 1
